Target: Quinol-dependent nitric oxide reductase from Alcaligenes xylosoxidans (His-tagged AxqNOR-BRIL) (Alcaligenes xylosoxidans)
Test: cryo-EM structure; single-particle cryoEM, 2.2 Å, refined in C2 symmetry; sample at 3 mg/mL in Tris-HCl buffer pH 7.0, 150 mM NaCl, 0.05% DTM; dimer

stoichiometry N: 2
Substance: Quinol-dependent nitric oxide reductase from Alcaligenes xylosoxidans (His-tagged AxqNOR-BRIL) (enzyme)

— paper PMC10256718
